Measured values taken from PMC11040352 (2024).
Starred links: 1 amine or outer side, 2 acyl side, 3 side chain; linkers in the order of their positions; H or OH if unused. Positions of bridges follow the written chain, without caps; N, C: chain ends. Primed or numbered codes have the meaning given here. *: point of attachment. NOTA = O=C(O)CN1CCN(CC(=O)O)CCN(CC(=O)*)CC1; TBMB = c1c(C[*:1])cc(C[*:3])cc1C[*:2]; PEG3′ = not defined here

Target: His-Tagged human CD38 (recombinant) (human, UniProt P28907 1-300)
Assay: SPR

B1: AJ206 (peptide)
peptide: {NOTA-PEG3′}-ACVPCADFPIWYC-NH2
modifications: linker 2-5-13 via TBMB (inferred)
koff: 0.0006 s⁻¹
